Laboratory results taken from patent publication US20250333441A1, “POLYPEPTIDE INHIBITORS AND USES THEREOF” (Neuracle Science Co., Ltd., priority 2021, published 2025).

Experiments:
FAM19A5 protein = FAM19A5 protein (Homo sapiens, UniProt Q7Z5A7); assay: Co-immunoprecipitation of FLAG-tagged LRRC4 family constructs with recombinant FAM19A5 in HEK293 cells; format: binding; conditions: HEK293 cells expressing FLAG-tagged construct, recombinant FAM19A5 protein (1 μM) 30 minutes; anti-FLAG immunoprecipitation
Experimental: To better understand the interaction between FAM19A5 and members of the LRRC4 protein family, HEK293 cells were modified to express a FLAG-tagged member of the LRRC4 protein family, i.e., LRRC4C protein, LRRC4 protein, or LRRC4B protein. Then, the HEK293 cells or primary cortical neurons were treated with recombinant FAM19A5 protein (1 μM) for 30 minutes, and the binding between FAM19A5 protein and the different members of the LRRC4 protein family was assessed using both co-immunoprecipitation and immunofluorescence assays.
For the co-immunoprecipitation assay, cell lysates from the different FAM19A5-treated HEK293 cells were collected and immunoprecipitated with an anti-FLAG antibody, anti-FAM19A5 (1-65) antibody, or a human IgG antibody (control). Immunoprecipitated proteins were immunoblotted with anti-FLAG and anti-FAM19A5 (3-2) antibodies. For the immunofluorescence assay, the HEK293 cells treated with the recombinant FAM19A5 protein were immunostained with anti-FAM19A5 (3-2) (to detect FAM19A5 protein expression) and anti-FLAG antibodies (to detect member of the LRRC4 protein family). The primary cortical neurons treated with the recombinant FAM19A5 protein were immunostained with anti-FAM19A5 (3-2) and anti-LRRC4B antibodies. The nuclei were stained with Hoechst33342 (blue).
To determine the specific motif or domain of the LRRC4B protein that is responsible for the binding to a FAM19A5 protein, various FLAG-tagged LRRC4B deletion constructs were generated (see Table 6 below). HEK293 cells were transfected with the different deletion constructs and then treated with recombinant FAM19A5 protein as described in Example 1. Then, the cell lysates from the different HEK293 cells were immunoprecipitated with the anti-FLAG antibody. The immunoprecipitated proteins were immunoblotted with anti-FLAG and anti-FAM19A5 (3-2) antibodies.
As described in Example 2, all members of the LRRC4 protein family were capable of binding to FAM19A5 protein to varying degrees. Therefore, to compare the bindings domains, the amino acid sequences of the LRRC4B, LRRC4, and LRRC4C proteins were aligned. […] Therefore, to assess whether the corresponding positions of LRRC4 and LRRC4C were important in the binding of these proteins to FAM19A5 protein, cDNAs encoding either (i) LRRC4C protein fragment (amino acids 354-527 of SEQ ID NO: 3; SEQ ID NO: 66) or (ii) LRRC4 protein fragment (amino acids 353-527 of SEQ ID NO: 1; SEQ ID NO: 67) were constructed (see Table 7). HEK293 cells were transfected to express either of the protein fragments and then treated with recombinant FAM19A5 protein as described in Example 1. Then, the cell lysates from the different HEK293 cells were immunoprecipitated with the anti-FLAG antibody. The immunoprecipitated proteins were immunoblotted with anti-FLAG and anti-FAM19A5 (3-2) antibodies.

[1] = system: APP/PS1 mice (Alzheimer mouse model); assay: Synaptic formation in hippocampal CA1 and CA3 of APP/PS1 mice; format: in vivo; conditions: 30 mg/kg intravenous, four consecutive weeks; compared to mutant LRRC4B protein fragment
Experimental: FIGS. 16A, 16B, and 16C show the ability of LRRC4B peptide fragment (amino acid residues 453-576 of SEQ ID NO: 2; “WT”) (i.e., SEQ ID NO: 7) to promote synaptic formation in the hippocampal CA1 of APP/PS1 mice. As further described in Example 8, APP/PS1 mice were treated with the LRRC4B peptide fragment (30 mg/kg; intravenous administration) for four consecutive weeks, and then synaptic formation was assessed by fluorescence microscopy using antibodies against SYP and PSD95. Control animals received no treatment (“Cont”) or the mutant LRRC4B peptide fragment […] (i.e., comprising alanine substitutions at positions 488 and 489 of SEQ ID NO: 2; SEQ ID NO: 16). FIG. 16A provides representative fluorescent photomicrographs. FIGS. 16B and 16C show the SYP and PSD95 intensity, respectively.
FIGS. 17A, 17B, and 17C show the ability of LRRC4B peptide fragment (amino acid residues 453-576 of SEQ ID NO: 2; “WT”; SEQ ID NO: 7) to promote synaptic formation in the hippocampal CA3 of APP/PS1 mice. The animals were treated and analyzed as described in FIGS. 16A-16C. FIG. 17A provides representative fluorescent photomicrographs. FIGS. 17B and 17C show the SYP and PSD95 intensity, respectively.
Additionally, to confirm the above effect on neurite outgrowth in vivo, APP/PS1 mice (Alzheimer mouse model) were used. […] Hong et al., Science 352(6286): 712-716 (May 2016). […]

Sequence of FAM19A5 protein (Q7Z5A7 44-132): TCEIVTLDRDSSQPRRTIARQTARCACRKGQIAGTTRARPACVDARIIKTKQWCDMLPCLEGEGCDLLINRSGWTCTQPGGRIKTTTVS

B1: LRRC4B (453-576): LRRC4B fragment, amino acids 453-576 of SEQ ID NO: 2 (SEQ ID NO: 7); used hFc-fused (protein)
chain: VSAVDPVAAGGTGSGGGGPGGSGGVGGGSGGYTYFTTVTVETLETQPGEEALQPRGTEKEPPGPTTDGVWGGGRPGDAAGPASSSTTAPAPRSSRPTEKAFTVPITDVTENALKDLDDVMKTTK
modifications: human Fc fusion in use
notes: used hFc-fused
- binding to FAM19A5 protein (co-immunoprecipitation) (FAM19A5 protein): able to bind to the FAM19A5 protein
- SYP and PSD95 immunoreactivities in CA1 and CA3 [1]: increased SYP and PSD95 immunoreactivities
